# Test results reported in article PMC12663325, “Structural insights into mechanisms of zinc scavenging by the Candida albicans zincophore Pra1” (Nature Communications, 2025).
# Target: the molecule itself
# Test: cryo-EM structure; Pra1:Zn2+ complex; 20 mM Tris-HCl pH 8.0, 150 mM NaCl, 1 mM ZnSO4, 0.05% BSA as additive; C1 map, 2.5 Å
protein,measurement,value
"Candida albicans Pra1, recombinant wild type (full-length excluding the signal peptide) (natural protein, N-linked glycosylation at Asn 48, Asn 89, Asn 135 and Asn 208; three intramolecular disulfide bonds, Pra1 of Candida albicans, codon-optimized full-length PRA1 excluding the signal peptide; the precursor is 299 amino acids including its N-terminal signal peptide; residues 31-251 are seen in the cryo-EM maps; A TEV protease site stood between the His-tag and Pra1; also called zincophore Pra1; wild-type Pra1; not shown: His-tag, N-terminal, cleaved) APVTVTRFVDASPTGYDWRADWVKGFPIDSSCNATQYNQLSTGLQEAQLLAEHARDHTLRFGSKSPFFRKYFGNETASAEVVGHFDNVVGADKSSILFLCDDLDDKCKNDGWAGYWRGSNHSDQTIICDLSFVTRRYLTQLCSSGYTVSKSKTNIFWAGDLLHRFWHLKSIGQLVIEHYADTYEEVLELAQENSTYAVRNSNSLIYYALDVYAYDVTIPGEGCNGDGTSYKKSDFSSFEDSDSGSDSGASSTASSSHQHTDSNPSATTDANSHCHTHADGEVHC",stoichiometry N,6
